Assay [1] has as its target T1, mouse IL-13 (mouse, UniProt P20109 26-131, limits assumed).
T1 sequence (looked up): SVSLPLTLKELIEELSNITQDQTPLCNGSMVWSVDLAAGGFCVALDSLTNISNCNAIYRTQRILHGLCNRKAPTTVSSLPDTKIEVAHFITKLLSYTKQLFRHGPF
Kind of assay: cell-based or functional assay.

The target of assay [2] is T1, mouse IL-13. Description: BIACORE against recombinant mouse IL-13.
Assay [3] has as its target T2, human IL-13 wild type (human, UniProt P35225 35-146). Description: cell-based or functional assay.
Assay [4] has as its target T2, human IL-13 wild type. Kind of assay: cell-based or functional assay. The source holds these as a separate data set.
Assay [5] addresses human IL-13 variant (R130Q) (human, UniProt P35225 35-146). Description: cell-based or functional assay.
In assay [6] the target is T2, human IL-13 wild type. Description: SPR (Biacore). Here is the method: (§1) The BIACORE assay (Biacore, Inc, Piscataway, N.J.) determines the affinity of antibodies with kinetic measurements of on-, off-rate constants. […] All chemicals were obtained from Biacore® AB (Uppsala, Sweden) or otherwise from a different source as described in the text. Approximately 5000 RU of goat anti-mouse IgG, (Fcγ), fragment specific polyclonal antibody (Pierce Biotechnology Inc, Rockford, Ill.) diluted in 10 mM sodium acetate (pH 4.5) was directly immobilized across a CM5 research grade biosensor chip using a standard amine coupling kit according to manufacturer's instructions and procedures at 25 μg/ml. Unreacted moieties on the biosensor surface were blocked with ethanolamine. Modified carboxymethyl dextran surface in flowcell 2 and 4 was used as a reaction surface. Unmodified carboxymethyl dextran without goat anti-mouse IgG in flow cell 1 and 3 was used as the reference surface. For kinetic analysis, rate equations derived from the 1:1 Langmuir binding model were fitted simultaneously to association and dissociation phases of all eight injections (using global fit analysis) with the use of Biaevaluation 4.0.1 software. Purified antibodies were diluted in HEPES-buffered saline for capture across goat anti-mouse IgG specific reaction surfaces. Mouse antibodies to be captured as a ligand (25 μg/ml) were injected over reaction matrices at a flow rate of 5 μl/min. The association and dissociation rate constants, kₒₙ (unit M⁻¹s⁻¹) and koff (unit s⁻¹) were determined under a continuous flow rate of 25 μl/min Rate constants were derived by making kinetic binding measurements at ten different antigen concentrations ranging from 10-200 nM. […] Binding is recorded as a function of time and kinetic rate constants are calculated.
Background: In SPR one partner is held on a chip, and binding of the other changes the refractive index at the surface.

Assay [7] has as its target T3, cynomolgus IL-13 (cynomolgus, UniProt Q0PW92 21-132).
T3 construct: also called cyno IL-13; wild type cyno IL-13
Kind of assay: SPR (Biacore). Here is the method:
as §1

For assay [8], the target named is T4, rhesus IL-13 (rhesus, UniProt Q864V6 21-132, limits assumed). Description: SPR (Biacore). How it is done: as §1
T4 sequence (Q864V6 21-132 limits assumed): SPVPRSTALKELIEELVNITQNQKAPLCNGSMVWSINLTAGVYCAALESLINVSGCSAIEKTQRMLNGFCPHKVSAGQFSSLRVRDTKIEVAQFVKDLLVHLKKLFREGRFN
Assay [9] addresses T3, cynomolgus IL-13. Description: cell-based or functional assay.
Assay [10] has as its target T2, human IL-13 wild type. Kind of assay: cell-based or functional assay. This is another data set of the same source.
The target of assay [11] is T4, rhesus IL-13. Description: cell-based or functional assay.

Where a chain is given by its changes, count along the chain named. Where two headings read alike, the source gives them in different places.

Consider 8 molecules from patent US20110165066A1 (AbbVie / Abbott, published 2011).

T2 sequence (P35225 other isoform, or with tags, fused parts or gaps limits assumed): as the sequence (Q864V6 21-132 limits assumed) above, with S1G, R5P, K10R, V42M, N67S, R83H, V100L counted along it
T3 sequence (Q0PW92 entry or part of it): as the sequence (Q864V6 21-132 limits assumed) above, with R5P, R110Q counted along it
human IL-13 variant (R130Q), sequence (P35225 35-146 limits assumed, stated change not applied): as the sequence (Q864V6 21-132 limits assumed) above, with S1G, R5P, K10R, V42M, N67S, R83H, V100L, R110Q counted along it

B1: 51D9 (antibody, V domains shown)
VH: QIQLVQSGPELKKPGESVKISCKASGYTFTDYAMHWVKQAPGKGLKWMAWINTYTGKPTYADDFKGRFVFSLEASASTATLQISNLKNEDTATYFCARAGRTEGTHYYAMDAWGQGTSVTVSS
VL: DIVLTQSPVLAVSLGQRATISCRASQSVSISSSDLMHWYQQRPGHQPKLLIYRTSNLVSGIPARFSGSGSGTDFTLTIDPVQADDIAAYYCQQGRESPWTFGGGTKLELKR
For B1, the “IC50, A-549 bioassay against recombinant mouse IL-13” value in [1] came to 0.343 nM. For the same molecule, in assay [2], the Kd turned out to be 0.145 nM.

B2: 5G1-Chim (antibody, V domains shown)
VH: QVQLQQSGAELARPGTSVKLSCKASGYTFTTYGVSWVKQRTGQGLEWIGEIYPGNYNTYYNEKFRGKATLTADKSSSTAYMQLSSLTSEDSAVYFCSRWRTSYFSDYGYFDYWGQGTTLTVSS
VL: DVVMTQTPLSLPVSLGDQASISCRSSQSLVHSHGNTYLHWYLQKPGQSPKLLIYTVSNRFSGVPDRFSGSGSGTDFTLKISRVEAEDLGVYFCSQSTHVPYTFGGGTKLEIKR
notes: also called chimeric 5G1
B2: the “Average IC50, IL-13-induced TARC production by A-549 cells” value (“Average IC50” for short) in assay [3] is 0.041 nM. Further, in assay [4], the “Potency (IC50), A-549 bioassay” value was 0.0769 nM. The “Potency (IC50), A-549 bioassay” value in assay [5] came to 0.0692 nM. In [6], this molecule showed a Kd of 0.0417 nM, a koff of 3.82e-05 s⁻¹ and a kon of 915000 M⁻¹ s⁻¹.

B3: 48D3 (antibody, V domains shown)
VH: EVQLVESGGDLVQPGRSLKLSCAASGFTFSDYYMAWVRQAPTKGLEWVASISNDGISTYYRDSVKGRFTISREKAKSSLYLQMDSLRSEDTATYYCTTWNWEFGFFDYWGQGVMVTVSA
VL: DIVLTQSPALAVSLGQRATISCRASQSVTISRYNRMHWYQQRPGQQPKLLIYRSSYLASGIPARFSGSGSGTDFTLTIYPVQADDIATYYCQQNRESPWTFGGGTKLELNR
With B3, in assay [1], the “IC50, A-549 bioassay against recombinant mouse IL-13” value stood at 0.0491 nM. For the same molecule, in assay [2], the Kd was 0.105 nM.

B4: 13C5.5L2EL3F (antibody, V domains shown)
VH: EVTLRESGPGLVKPTQTLTLTCTLYGFSLSTSDMGVDWIRQPPGKGLEWLAHIWWDDVKRYNPALKSRLTISKDTSKNQVVLKLTSVDPVDTATYYCARTVSSGYIYYAMDYWGQGTLVTVSS
VL: DIQMTQSPSSLSASVGDRVTISCRASQDIRNYLNWYQQKPGKAPKLLIFYTSMKPRGVPSRFSGSGSGTDYTLTISSLQPEDIATYYCQQGLTPPLTFGGGTKVEIK
notes: constant regions not restated for this variant
With B4, the Kd worked out at 0.32 nM in assay [7], 0.25 nM in [6] and 0.13 nM in assay [8]. In addition, the “Potency (IC50), A-549 bioassay” value in [9] is 0.48 nM; in [10], 0.12 nM; in assay [11], 0.26 nM.

B5: 13C5.5L2E (antibody, V domains shown)
VH: B4 VH
VL: B4 VL with L92N, P94L
notes: as for B4
For the molecule B5, the Kd came to 0.52 nM in assay [7], 0.12 nM in assay [6] and 0.29 nM in [8]. Besides, the figures for the “Potency (IC50), A-549 bioassay” value in assay [9], in assay [10] and in [11] were 1.2 nM, 0.18 nM and 0.4 nM, respectively.

B6: 13C5.5L3F (antibody, V domains shown)
VH: B4 VH
VL: B4 VL with M53K, K54L, P55H, R56S
notes: The heavy chain row is printed 'VH 13C5.5L2F'
For B6, the Kd was 0.19 nM in assay [7], 0.24 nM in assay [6] and 0.11 nM in [8]. The “Potency (IC50), A-549 bioassay” value in assay [9] was 0.46 nM; in assay [10], 0.15 nM; in assay [11], 0.14 nM.

B7: 9C11-Chim (antibody, human IgG1, V domains shown)
VH: QVRLQQPGAELVRPGASVKLSCKASGYTFTSSWIHWVNQRPGQGLEWIGMIHPSDSETRLNQKFKDKATLTVDKSSSTAYMQLSSPTSEDSAVYYCASTATDFDYWGQGTTLTVSS
VL: DVVLTQTPLSLPVNIGDQASISCRSTQTLLNSDGFTYLDWYLQKPGQSPQLLIYLVSNRFSGVPDRFSGSGSGTDFTLKISRVEAEDLGVYYCFQNNYLPLTFGAGTKLELKR
On to B7, for which, in assay [3], the “Average IC50” value was found to be 0.123 nM.

B8: 13C5-Chim (antibody, human IgG1, V domains shown)
VH: QVTLKESGPGILQPSQTLSLTCSFSGFSLSTSDMGVDWIRQPSGKGLEWLAHIWWDDVKRYNPALKSRLTISKDTSSSQVFLMLASVDTADTATYYCARTVSSGYIYYAMDYWGQGTSVTVSS
VL: DIQMTQTASSLSASLGDRVTISCRASQDIRNYLNWYQRKPDGTVKLLIFYTSKLHSGVPSRFSGSGSGTDYSLTIRNLEQEDIATYFCQQGNTLPLTFGGGTKLEIKR
notes: also called chimeric 13C5
For B8, the “Average IC50” value in assay [3] came to 0.191 nM. For the same molecule, in assay [4], the “Potency (IC50), A-549 bioassay” value came to 0.107 nM. For the same molecule, the “Potency (IC50), A-549 bioassay” value in assay [5] worked out at 0.037 nM. Besides, in [6], binding was put at a Kd of 0.0568 nM, the koff was 9.65e-05 s⁻¹ and the kon is 1.7e+06 M⁻¹ s⁻¹.

Broadly, the Kd is the equilibrium constant for the complex coming apart. As usually defined, the koff is the first-order rate constant of dissociation. Lower therefore signals slow dissociation. By kon is commonly meant the rate constant with which the complex forms.
